Experiments:
[1] = system: c-Met positive (≥25% 3+ IHC staining) advanced non-squamous NSCLC, EGFR mutant; assay: Phase 2 study (NCT03539536) of Teliso-V monotherapy, objective response rate; assay type: in vivo, human; settings: Teliso-V monotherapy 1.9 mg/kg
[2] = system: c-Met expressing NSCLC; assay: First in human phase I trial of Teliso-V monotherapy (NCT02099058), best overall response by c-Met IHC cutoff; assay type: in vivo
Text: (§1) The clinical modeling data was obtained from the Teliso-V monotherapy trial NCT02099058. Abbreviations shown in FIG. 5 and determination of the values in the table are as follow: PPA (positive percent agreement): #oV positive uV positive/Total uV positive; NPA (Negative percent agreement): #oV negative uV negative/Total uV negative; OPA (Overall percent agreement): #oV positive uV positive+#oV negative uV negative/Total number of samples tested; PPV (Positive predictive value): #of oV positive uV positive/total #of oV positive; NPV (Negative predictive value): #of oV negative uV negative/Total oV negative. % BOR represents the percent best overall response.
as §1, with “FIG. 6” for “FIG. 5”
An analytical method comparison between SP44 Ultraview and SP44 OptiView on a large cohort of commercial NSCLC tissues was performed (FIG. 4). […] The overall percent agreement at this cutoff between the two assays was 93%. The first in human phase I clinical trial for Teliso-V monotherapy in NSCLC enrolled patients with an H-score of 150 using the SP44 UltraView assay. Upon re-scoring of the slides, the optimal cutoff utilizing the SP44 Ultraview IHC assay was ≥25% 3+ with a best overall response of 56%. The best overall response for the OptiView IHC assay at the same cutoff, ≥25% 3+, utilizing the phase I data through statistical modeling was 52% (FIG. 5).
The first in human phase I clinical trial for Teliso-V monotherapy in NSCLC enrolled patients with an H-score of 150 using the SP44 UltraView assay. […] The best overall response for the OptiView IHC assay at the same cutoff, ≥50% 3+, utilizing the phase I data through statistical modeling was 63% (FIG. 6).

B1: telisotuzumab vedotin (conjugate, chains of the INN, looked up)
VH: QVQLVQSGAEVKKPGASVKVSCKASGYIFTAYTMHWVRQAPGQGLEWMGWIKPNNGLANYAQKFQGRVTMTRDTSISTAYMELSRLRSDDTAVYYCARSEITTEFDYWGQGTLVTVSS
VL: DIVMTQSPDSLAVSLGERATINCKSSESVDSYANSFLHWYQQKPGQPPKLLIYRASTRESGVPDRFSGSGSGTDFTLTISSLQAEDVAVYYCQQSKEDPLTFGGGTKVEIK
modifications: vc-MMAE payload
notes: ADC of the c-Met targeting antibody ABT-700 conjugated to monomethyl auristatin E (MMAE) through a valine citrulline linker
[1]; non-squamous NSCLC EGFR mutant patients, c-Met ≥25% 3+, interim analysis
  ORR (CR + PR): 11.6%
[1]; subset of EGFR mutant subjects previously treated with osimertinib
  ORR (CR + PR): 0%
[1]; subset of EGFR mutant subjects previously treated with osimertinib, listed as Teliso V
  ORR (CR + PR): 0%
[2]; patients at ≥25% 3+ cutoff, OptiView IHC assay, phase I data through statistical modeling
  best overall response: 52%
[2]; patients at ≥25% 3+ cutoff, SP44 Ultraview IHC assay, re-scored slides
  best overall response: 56%
[2]; patients at ≥50% 3+ cutoff, OptiView IHC assay, phase I data through statistical modeling
  best overall response: 63%
[2]; patients at ≥50% 3+ membrane staining cutoff, SP44 Ultraview IHC assay, re-scored slides
  best overall response: 67%
